# B1: SG-14: Eubacterium eligens protein comprising SEQ ID NO:3; tested form expressed in E. coli, with exogenous GPLG at N-terminus and PHRD at C-terminus (protein)
# chain: GCARNSTSTTTASGGETTITSAITKEDTDVTHADDAENYRVSITGDFTVTSDTSDGVTQSGSVYTITKAGEYTVTGLLSEGQLIVDAGNENEVTIVLNGTSITCSSGSPIYVKNASEVKIKSEENSFNEVIDNRNEATEDSSDDAGNAAIYATCDLKLVGKGALVVTGNYNNGIQSKDDLSIKNVIVKVTAVNNAVKVNDAVDIESGNIIAISAKGDGIKTSNSSISNKGNQKGIVTITSGNIDIYAACDGIDASYGADISGDGNLNIYTDTYSEYSEEVTSSGSSSGTSSGRDSSANKSASANTVSYVATSDTIANAPSGFGGGNMGSGNAPDMSNGNAPNMNGSSDRNKTGGNRPGMPGDFNESGNSSGQSYSTKGIKAESEINISGFTINICSTDDGIHANSDSGVLETGEDGKGTIVINGGSITISSGDDGMHADKQLDVNDGYINVVTSYEGLEAMTINLNGGKIYVYATDDGINACTGDGKTSPIVNVTGGYIDVTTTSGDTDGIDSNGNYVQTGGFVLVKGGSSSGNVSGSIDVDGTVTITGGTCVALGGVCETPVNSANAYVLGSVSFSSGSYSLKDSSGNEVISFTVDGSFSNGWICSDTLTTGSSYTLYRGADSIADWTQE
# modifications: N-terminal GPLG and C-terminal PHRD
# What was measured:
# [1] = system: DSS model of inflammatory bowel disease; assay: DSS model: gross pathology score; format: in vivo, C57BL/6 mice; conditions: FIG. 9
# Method: Eight-week old C57BL/6 mice were housed 5 animals were cage and given food and water ad libitum for 7 days. Following the 7-day acclimation period, treatments were initiated concurrently with addition of 2.5% DSS to the drinking water. […] The mice were treated with 2.5% dextran sodium sulfate (DSS) in their drinking water for 6 days. Treatments were continued with SG-14 or […]-GLP2 twice a day (b.i.d.) in the morning and evening (every 8 and 16 hr) with i.p. injections at 50 nmoles/kg. Fresh 2.5% DSS drinking water was prepared every 2 days. Gross pathology observations were made in mice included in the concurrent DSS model performed in this Example. […] The scoring system used was: (0)=no gross pathology, (1)=streaks of blood visible in feces, (2)=completely bloody fecal pellets, (3) bloody fecal material visible in cecum, (4) bloody fecal material in cecum and loose stool, (5)=rectal bleeding. The graph in FIG. 9 represents data pooled from the single experiment (n=10).
# IL-10 = IL-10 production by monocytes in co-culture TEER assay (Luminex); format: cell-based, human; conditions: pre-incubated 6 hours prior to HK E. coli; FIG. 3
# Method: IL-10 production was measured in tissue culture supernatant from the basolateral chamber of the co-culture TEER assay described in Example 2 containing monocytes. Luminex analysis was performed to determine the pg/ml concentration of IL-10 produced by the monocytes. IL-10 production in untreated cells and cells pre-incubated with SG-14 for 6 hours prior to HK E. coli treatment were normalized to pg/ml concentrations elicited by HK E. coli which was set to 1.0. Pre-incubation with SG-14 increased IL-10 production to 1.21. The graph in FIG. 3 represents data pooled from two individual experiments (n=6).
# IL-23 = IL-23 production by monocytes in co-culture TEER assay (Luminex); format: cell-based, human; conditions: pre-incubated 6 hours prior to HK E. coli; p=0.80; FIG. 2B
# Method: (§1) Production of the pro-inflammatory cytokines TNF-α and IL-23 by monocytes was measured in the tissue culture supernatant from the basolateral chamber of the co-culture TEER assay performed in Example 2. Following TEER readings, the supernatants were centrifuged at 10,000 g for 5 minutes at 4° C. to remove cell debris. Luminex analysis was performed according to the manufacturer's instructions (Magpix instrument and xPonent software version 4.2; Luminex Corporation (Austin, TX)). Luminex analysis was performed to determine the pg/ml concentration of TNF-α and IL-23 produced by monocytes. Luminex analysis utilizes a bead-based system for quantification of multiple cytokines from a single sample. Like an ELISA, Luminex beads are coated with a capture antibody, and incubation with samples allows the target to bind to the capture antibody. Beads are washed and incubated with a fluorescently labeled detection antibody for quantification of bound target. Cytometric analysis is used to differentiate bead populations, which are loaded with differential fluorescent dyes, and to quantify cytokine levels by measuring detection antibody signal. TNF-α production in untreated cells and cells pre-incubated with SG-14 for 6 hours prior to HK E. coli treatment were normalized to pg/ml concentrations elicited by HK E. coli which was set to 1.0. […]
# [2] = system: DSS model of inflammatory bowel disease; assay: DSS model: 4 KDa-FITC dextran translocation across the epithelial barrier; format: in vivo, C57BL/6 mice; conditions: 50 nmoles/kg i.p. b.i.d., 2.5% DSS 6 days; FIG. 6
# Method: Eight-week old C57BL/6 mice were housed 5 animals were cage and given food and water ad libitum for 7 days. Following the 7-day acclimation period, treatments were initiated concurrently with addition of 2.5% DSS to the drinking water. […] The mice were treated with 2.5% dextran sodium sulfate (DSS) in their drinking water for 6 days. Treatments were continued with SG-14 or […]-GLP2 twice a day (b.i.d.) in the morning and evening (every 8 and 16 hr) with i.p. injections at 50 nmoles/kg. Fresh 2.5% DSS drinking water was prepared every 2 days. On day six, mice were fasted for four hours and then orally gavaged with 600 mg/kg 4 KDa dextran labeled with fluorescein isothiocyanate (FITC) [4 KDa-FITC]. One hour after the 4 KDa-FITC gavage mice were euthanized, blood was collected and FITC signal was measured in serum. […] Results are shown in FIG. 6, and are presented as mean SEM. The graph in FIG. 6 represents data pooled from the single experiment (n=10).
# TNF-α = TNF-α production by monocytes in co-culture TEER assay (Luminex); format: cell-based, human; conditions: pre-incubated 6 hours prior to HK E. coli; FIG. 2A
# Method: as §1
molecule,measurement,setting,value
B1,Gross pathology score (0-5) vs vehicle treated DSS mice,"[1]; 50 nmoles/kg i.p. b.i.d., 2.5% DSS",significantly improved gross pathology
same,Clinical scores vs DSS mice treated with Gly2-GLP2,[1],No differences
same,IL-10 production normalized to HK E. coli (set to 1.0),IL-10,1.21
same,IL-23 production normalized to HK E. coli (set to 1.0),IL-23,1.1
same,4 KDa-FITC dextran in serum vs DSS mice treated with vehicle,[2],significant reduction
same,Magnitude of 4 KDa-FITC dextran translocation vs Gly2-GLP2,[2],even lower than the positive control
same,TNF-α production normalized to HK E. coli (set to 1.0),TNF-α,0.77

# Reference: US12371456B2, “Proteins for the treatment of epithelial barrier function disorders” (Genevive, Inc., priority 2017, dated 2025)
